Data published in patent US20080305111A1, “Anti-C35 antibodies for treating cancer” (VACCINEX, INC., priority 2006, published 2008).

T1: recombinant human C35 (rhC35) (Homo sapiens, UniProt Q9BRT3)
T1 construct: made in house; host or cells: E. coli
T1 sequence (Q9BRT3 1-115): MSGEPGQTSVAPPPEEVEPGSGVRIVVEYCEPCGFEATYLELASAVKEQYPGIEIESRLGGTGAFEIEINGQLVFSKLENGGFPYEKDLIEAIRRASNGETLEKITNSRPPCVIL

T2: C35 (Homo sapiens, UniProt Q9BRT3)
T2 sequence (Q9BRT3 1-115): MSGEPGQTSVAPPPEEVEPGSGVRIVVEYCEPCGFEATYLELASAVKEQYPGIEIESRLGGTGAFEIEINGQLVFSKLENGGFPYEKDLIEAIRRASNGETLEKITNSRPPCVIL


Experiments:
[1] = target: T1, recombinant human C35 (rhC35); assay: Epitope mapping by Lys-C digestion of rhC35 and Western blot; assay type: binding; details: residues numbered from amino terminal methionine of native human C35
Description: To localize the epitope specificity of 1B3 and 1F2 antibodies, recombinant human C35 (rhC35) synthesized with a 6×His tag in E. coli was digested with Lys-C endoproteinase. This enzyme cuts after lysine (K) residues in the protein sequence. […] The full sequence of rhC35, including the amino terminal 6×His tag addition is shown. Amino acid positions are numbered relative to the amino terminal methionine (M) of the native human sequence. Note that digestion at the first and third lysine followed by negatively charged residues is inefficient and some longer combination fragments may be generated. Lys-C endoproteinase was added to purified rhC35 at a 50:1 weight ratio and incubated for 18 hours at 37° C. in 25 mM Tris, pH 8.0. The digest was ethanol precipitated and resolubilized in reducing Tricine sample buffer. […] Peptides were transferred to PVDF membranes and the blots depicted in FIG. 10 were either stained with Coomassie blue (lanes 1-3 of both left and right panels) to detect all peptides or processed with one of the following: 1 μg/ml of the murine 1F2 anti-C35 antibody followed by alkaline phosphatase conjugated goat anti-mouse antibody (lane 4 of left panel); 1 μg/ml of the 1B3 anti-C35 immunoglobulin variable regions linked to human constant regions (MAb11) followed by alkaline phosphatase conjugated goat anti-human antibody (lane 5 of left panel); or anti-6×His tag mouse antibody (Amersham) followed by alkaline phosphatase conjugated goat anti-mouse antibody (lane 4 and 5 of right panel). BCIP/NBT substrate was added and developed to detect the secondary reagents. Molecular weight markers are indicated in the flanking lanes of both panels.
In FIG. 10, the indicated band A migrates at the position of undigested rhC35. Note that band B stains with 1F2 but not MAb11 (1B3) anti-C35 antibody while band C stains with neither 1F2 nor MAb11 (1B3) antibody. Since bands B and C both do stain with anti-6×His tag antibody to the 6×His tag at the amino terminus of rhC35, it may be concluded that both fragments lack C-terminal peptide fragments. […]

[2] = system: C35-positive MDA231 tumor cells; assay: Two C35 antibodies and paclitaxel in MDA231 xenograft (FIG. 12); assay type: in vivo, Swiss nude mice; details: antibody 20 mg/kg i.v. twice weekly for three weeks, paclitaxel 30 mg/kg i.p. days 17 and 24
Method: As illustrated in FIG. 12 and described in this example, methods of treating cancer directed to the administration of two C35 antibodies in combination with a chemotherapeutic agent were tested. Five million C35-positive MDA231 tumor cells were implanted subcutaneously in the mammary fat pads of Swiss nude mice. Groups of at least five mice each received the following treatments, beginning on day 17 post-graft: • 1. No Treatment (Control Group) • 2. 30 mg/kg i.p. injection of paclitaxel on days 17 and 24. • 3. 30 mg/kg i.p. injection of paclitaxel on days 17 and 24, together with 400 μg per i.v. injection (20 mg/kg) of 1F2 murine monoclonal antibody starting on day 17 and continuing twice weekly for three weeks. • 4. 30 mg/kg i.p. injection of paclitaxel on days 17 and 24, together with 400 μg per i.v. injection (20 mg/kg) of […] murine monoclonal antibody starting on day 17 and continuing twice weekly for three weeks. • 5. […]
Average mouse tumor volume was measured at various time points post-graft. Two measurements were taken with vernier calipers on each tumor; tumor volume was calculated using the formula (length×width^2)/2. […]

C35 = target: T2, C35; assay: Characterisation of hybridoma antibodies (ELISA, Western blot, immunohistochemistry, competitive binding ELISA); details: for binding to recombinant C35 protein: ELISA and Western Blot
Method: Hybridoma cell lines 1F2.4.1 and 1B3.6.1, specific for C35 polypeptides, were prepared using hybridoma technology. (Kohler et al., Nature 256:495 (1975); Kohler et al., Eur. J. Immunol. 6:511 (1976); Kohler et al., Eur. J. Immunol. 6:292 (1976); Hammerling et al., in: Monoclonal Antibodies and T-Cell Hybridomas, Elsevier, N.Y., pp. 571-681 (1981)). Briefly, hybridoma cell lines were generated using standard PEG fusion to the non-secreting myeloma cell line NS-1 (P3/NS1/1-AG4-1, ATCC #TIB-18) of splenocytes from BALB/c mice immunized with syngeneic BCA34 fibroblast tumor cells transduced to over express C35. Following PEG fusion to NS-1, the hybridomas were grown in methylcellulose semi-solid media. Approximately 2 weeks later, hybridoma colonies were isolated into 96 well plates and individual supernatants were tested for reactivity with C35 by ELISA, Western blot, and immunohistochemistry. Positive hybridoma colonies were subcloned and screened for reactivity twice to ensure clonality. Antibodies were isolated from hybridoma supernatants by protein G affinity purification using standard methods. […] In addition, the present inventors developed intracellular staining flow cytometry assays for quantitative analysis using antibodies from hybridoma cell line 1F2 conjugated to Alexa-647 fluorochrome. Each of these antibodies is distinct, yet both are specific for C35 protein. It is possible to immunoprecipitate C35 protein from cell lysates with either of these antibodies and detect with the other.

| Molecule | epitope specificity [1] | tumor growth, one antibody with paclitaxel [2] | competitive binding ELISA (C35) | binding to recombinant C35 protein (C35) | immunohistochemistry staining (C35; formalin fixed, paraffin embedded) |
| --- | --- | --- | --- | --- | --- |
| 1F2: mouse monoclonal anti-C35 antibody from hybridoma 1F2.4.1, gamma1 isotype, kappa light chain (SEQ ID NO:4, 6) (antibody, V domains shown) VH: DVQLQESGPGLVKPSQSLSLTCSVTGYSITSGYFWNWIRQFPGNKLEWMGYISYDGSNNSNPSLKNRISFTRDTSKNQFFLKFNSVTTDDSAAYYCTRGTTGFAYWGQGTLVTVSA VL: QIVLTQSPAIMSASPGEKVTISCSASSSVSYMNWYQQKPGSSPKPWIYHTSNLASGVPARFSGSGSGTSYSLTISSMEAEDAATYYCQQYHSYPPTFGGGTKLEIK | specific for an epitope within the C35 residues 48-104 | neither the 1F2 nor 1B3 administered individually with the chemotherapeutic agent paclitaxel was effective in inhibiting tumor growth | bind different epitopes of the C35 protein | specifically bind recombinant C35 protein in ELISA and Western Blot assays | specifically stain formalin fixed, paraffin embedded C35 positive tumors and cell lines |
| 1B3: mouse monoclonal anti-C35 antibody from hybridoma 1B3.6.1, gamma1 isotype, kappa light chain (SEQ ID NO:8, 10) (antibody, V domains shown) VH: EVQLQESGPSLVKPSQTLSLTCSVTGDSITSGYWNWIRKFPGNKLEYVGYISYSGGTYYNPSLKSRISITRDTSKNHYYLQLNSVTTEDTATYYCARGAYYGGAFFPYFDVWGAGTTVTVSS VL: DVQITQSPSFLAASPGETITINCRASKYISKHLVWYQEKPGETKKLLIYSGSTLQSGLPSRFSGSGSGTDFTLTISSLEPEDFAMYYCQQHNEYPLTFGAGTKLELK | specific for an epitope within C35 residues 105-115 | neither the 1F2 nor 1B3 administered individually with the chemotherapeutic agent paclitaxel was effective in inhibiting tumor growth | bind different epitopes of the C35 protein | specifically bind recombinant C35 protein in ELISA and Western Blot assays | – |
